Measurements from patent publication US20220017612A1 (TILOS THERAPEUTICS, published 2022).
Each block holds one binder with its values, some of them ahead of it.

Key:
[1] = biological target: T1, LAP-only variant of human TGFβ1 (empty LAP) on HT1080 cells (human, UniProt P01137 30-277); test: flow cytometry, HT1080 cells; grey bar = no anti-LAP antibody
T1 construct: LAP without the mature cytokine; also called HT1080-emptyLAP; LAP-only construct
Experimental: (§1) This Example describes the binding of anti-LAP antibodies to LAP-TGFβ isoforms and LAP-TGFβ variants. In addition to antibodies 28G11_hIgG1, 22F9_hIgG1, and 20E6_hIgG1, anti-LAP antibodies 17G8_hIgG1, 24E3_hIgG1, and 2C9_(hyb) were also tested in this experiment. Briefly, 4×10⁵ each of (a) HT1080 cells, (b) HT1080 cells overexpressing human LAP-TGFβ1, (c) HT1080 cells overexpressing human LAP-TGFβ2, (d) HT1080 cells overexpressing human LAP-TGFβ3, (e) HT1080 cells overexpressing murine LAP-TGFβ1, (f) P3U1 cells, (g) P3U1 cells overexpressing LAP-TGFβ1 and GARP, and (h) P3U1 cells overexpressing LAP-TGFβ1 and LRRC33 were cultured in 96-well plates. The plates were centrifuged for 5 min at 1,500 rpm, liquid was removed, and cells were resuspended with 200 μL FACS buffer. The plates were centrifuged again, diluted primary antibody was added to each well, and the plates were incubated on ice for 20 minutes, followed by centrifugation. The cells were resuspended in 200 μL FACS buffer, centrifuged again, and resuspended in 50 μL diluted secondary antibody (Alexa647-anti-Human IgG or APC-anti-Mouse IgG). The plates were incubated on ice for 20 minutes in the dark, washed twice with 200 μL FACS buffer, and cells from each well (in 200 μL FACS buffer) were read on the Attune NXT instrument.
(§2) Cells were processed for flow cytometry in the same manner described above for the isoform-specific binding experiments.

[2] = biological target: T2, human LAP-TGFβ1 with a Y74T mutation on HT1080 cells (human, UniProt P01137 30-390); test: as above
T2 construct: also called HT1080-Y74T; open conformation
Experimental: as §1, §2

[3] = biological target: human LAP-TGFβ1 overexpressed on cells (human, UniProt P01137 30-390); test: cell-based or functional assay
[4] = biological target: T3, soluble complex of the ECR3E fragment of human LTBP1 and human LAP-TGFβ1 (human, UniProt Q14766 1286-1466, limits assumed); test: bio-layer interferometry, biotinylated antibody on streptavidin tip
T3 construct: domain: third cysteine-rich domain of human LTBP1, flanked by EGFR-like domains; also called ECR3E-LAP-TGFβ1; ECR3E-LAP
Experimental: A streptavidin-functionalized tip was equilibrated in binding buffer (10 mM sodium phosphate, 150 mM sodium chloride, 1% (w/v) bovine serum albumin, 0.05% (w/v) sodium azide, pH 7.4) and dipped in a 5 μg/mL solution of biotinylated antibody (i.e., 20E6_H0.2aL1_hIgG1, murine 16F4, or MHG8, a GARP-specific murine IgG2a described in Lienart et al. Science 2018; 362:952-956) in binding buffer for 30 seconds to load the tip with antibody. The antibody-loaded tip was then washed in binding buffer and placed in a solution containing 0-24 nM of a fusion protein containing a human IgG1 Fc domain fused to either human LAP-TGFβ1, the soluble GARP-LAP-TGFβ1 complex, or the soluble ECR3E-LAP-TGFβ1 complex. The antigen was allowed to bind to antibody for 5 minutes (association phase), and then the tip was moved to binding buffer (dissociation phase). The binding and dissociation data for 16F4 and MHG8 were well-fit by a 1:1 binding model. The association and dissociation phases for 20E6_H0.2aL1_hIgG1 antibody were fit to a 2:1 heterogenous ligand binding model to determine the binding rate constants.
As shown in FIG. 24 and Table 21, the 20E6_H0.2aL1_hIgG1 antibody bound to free LAP-TGFβ1 and the soluble GARP-LAP-TGFβ1 complex with nanomolar affinity, but not to the ECR3E-LAP-TGFβ1 complex. […]

[5] = biological target: T4, fusion protein of a human IgG1 Fc domain and human LAP-TGFβ3 (human, UniProt P10600 24-412); test: bio-layer interferometry, biotinylated antibody on streptavidin tip, Fc-huB3 in solution
T4 construct: also called Fc-huB3; human LAP-TGFβ3-Fc
T4 sequence: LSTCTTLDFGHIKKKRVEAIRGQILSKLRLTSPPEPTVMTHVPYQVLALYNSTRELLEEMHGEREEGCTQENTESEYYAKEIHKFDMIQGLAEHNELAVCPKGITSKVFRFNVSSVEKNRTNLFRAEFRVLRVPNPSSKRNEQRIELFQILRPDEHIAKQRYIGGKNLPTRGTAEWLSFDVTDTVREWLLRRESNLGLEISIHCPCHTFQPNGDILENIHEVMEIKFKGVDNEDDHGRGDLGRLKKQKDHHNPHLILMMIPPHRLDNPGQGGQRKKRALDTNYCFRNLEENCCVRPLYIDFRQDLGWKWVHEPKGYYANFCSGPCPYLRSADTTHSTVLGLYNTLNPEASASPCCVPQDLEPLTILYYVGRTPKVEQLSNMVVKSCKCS
Experimental: (§3) The 20E6_H0.2aL1_IgG1 antibody was biotinylated using EZ-Link SulfoNHS-LC-Biotin (ThermoFisher). A streptavidin-functionalized tip was equilibrated in binding buffer (10 mM sodium phosphate, 150 mM sodium chloride, 1% (w/v) bovine serum albumin, 0.05% (w/v) sodium azide, pH 7.4) and dipped in a 10 μg/mL solution of biotinylated anti-LAP in binding buffer for 30 seconds to load the tip with antibody. The antibody-loaded tip was then washed in binding buffer and placed in a solution containing 0-24 nM of a fusion protein having a human IgG1 Fc domain fused to either human LAP-TGFβ1, human LAP-TGFβ2 or human LAP-TGFβ3. The antigen was allowed to bind to antibody for 5 minutes (association phase), and then the tip was moved to binding buffer (dissociation phase). The association and dissociation phases were fit to a 2:1 heterogenous ligand binding model to determine the binding rate constants. As shown in FIG. 21A and Table 17, 20E6_H0.2aL1_IgG1 bound with sub-nanomolar affinity to human LAP-TGFβ1, but not to human LAP-TGFβ2 (FIG. 21B) or LAP-TGFβ3 (FIG. 21C).

[6] = biological target: T5, fusion protein of a human IgG1 Fc domain and human LAP-TGFβ1 (human, UniProt P01137 30-390); test: BLI, 2:1 heterogeneous ligand model, component 2
T5 construct: printed both as Fc-huB1 and LAP-TGFβ-Fc; also called Fc-huB1; Fc-human LAP
Experimental: as §3

T5 sequence (P01137 30-390 limits assumed): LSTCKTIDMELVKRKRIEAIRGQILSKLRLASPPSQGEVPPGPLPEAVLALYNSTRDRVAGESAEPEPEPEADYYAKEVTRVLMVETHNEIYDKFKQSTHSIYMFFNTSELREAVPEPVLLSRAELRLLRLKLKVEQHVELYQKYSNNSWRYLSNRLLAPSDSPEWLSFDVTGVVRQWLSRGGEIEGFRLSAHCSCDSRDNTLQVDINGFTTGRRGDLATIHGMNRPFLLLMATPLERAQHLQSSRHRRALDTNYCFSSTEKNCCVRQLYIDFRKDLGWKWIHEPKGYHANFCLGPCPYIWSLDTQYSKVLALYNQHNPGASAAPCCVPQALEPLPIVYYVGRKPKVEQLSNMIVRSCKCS
human LAP-TGFβ1 overexpressed on cells, sequence (P01137 30-390): as the sequence (P01137 30-390 limits assumed) above
T1 sequence (P01137 30-277, change not shown): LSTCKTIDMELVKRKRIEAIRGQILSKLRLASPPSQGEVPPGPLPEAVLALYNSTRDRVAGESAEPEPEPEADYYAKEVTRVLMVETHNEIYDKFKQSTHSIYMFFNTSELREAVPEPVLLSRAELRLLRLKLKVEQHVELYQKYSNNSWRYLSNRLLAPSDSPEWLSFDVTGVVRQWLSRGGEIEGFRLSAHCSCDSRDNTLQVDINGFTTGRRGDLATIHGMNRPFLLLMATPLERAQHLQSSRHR
T2 sequence (P01137 other isoform, or with tags, fused parts or gaps Y74T Y74T): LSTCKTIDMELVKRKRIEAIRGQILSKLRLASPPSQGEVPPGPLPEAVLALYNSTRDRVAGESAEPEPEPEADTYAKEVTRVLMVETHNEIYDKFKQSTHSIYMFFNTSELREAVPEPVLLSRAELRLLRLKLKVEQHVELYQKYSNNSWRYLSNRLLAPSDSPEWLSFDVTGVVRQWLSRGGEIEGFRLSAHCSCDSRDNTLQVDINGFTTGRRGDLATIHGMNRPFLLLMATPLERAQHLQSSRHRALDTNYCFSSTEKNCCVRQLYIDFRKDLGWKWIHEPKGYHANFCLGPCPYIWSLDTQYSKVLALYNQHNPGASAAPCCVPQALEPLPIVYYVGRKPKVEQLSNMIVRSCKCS
T3 sequence (chain, as listed by the source limits assumed, chain 1 of 2): as the sequence (P01137 30-390 limits assumed) above
T3 sequence (Q14766 1286-1466 limits assumed, chain 2 of 2): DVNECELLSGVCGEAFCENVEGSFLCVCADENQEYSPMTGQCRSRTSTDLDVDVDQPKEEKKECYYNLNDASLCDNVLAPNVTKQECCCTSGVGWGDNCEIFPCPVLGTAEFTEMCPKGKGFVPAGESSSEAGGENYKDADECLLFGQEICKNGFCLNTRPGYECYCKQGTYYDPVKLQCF

binding result [1]: no binding
binding result [2]: no binding
IC50 of inhibition of TGFβ1 activation [3]: 1.8 µg/mL
B1: 22F9_hIgG1 (antibody, V domains shown)
VH: QVQLQQPGAELVKPGASVKLSCKASGYTFTSYWMHWVKQRPGQGLEWIGMIHPNSGSTNYNEKFKSKATLTVDKSSSTAYMQLSSLTSEDSAVYYCAYYDYDGFFDVWGTGTTVTVSS
VL: DIVLTQSPASLDVSLGQRATISCRASKSVSTSGYSYMHWYQQKSGQPPKLLIYLASNLESGVPARFSGSGSGTHFTLNIHPVEEEDAATYYCQHSRELPYTFGGGTKLEIK

binding result [4]: no binding (tested: 24 nM)
binding result [5]: no binding (tested: 24 nM)
Kd [6]: 0.35 nM
koff [6]: 0.000409 s⁻¹
kon [6]: 1.18e+06 M⁻¹ s⁻¹
IC50 of inhibition of TGFβ1 activation [3]: 1.3 µg/mL
B2: 20E6_H0.2aL1_hIgG1 (antibody)
heavy: not shown
light: DIQMTQSPSSLSASVGDRVTITCRASQDITNYLNWYQQKPGKAVKLLIYYTSRLHSGVPSRFSGSGSGTDYTLTISSLQPEDFATYFCQQGDTLPWTFGQGTKLEIKRTVAAPSVFIFPPSDEQLKSGTASVVCLLNNFYPREAKVQWKVDNALQSGNSQESVTEQDSKDSTYSLSSTLTLSKADYEKHKVYACEVTHQGLSSPVTKSFNRGEC
notes: also called 20E6_H0.2aL1_IgG1; humanized 20E6
